Reference: PMC9732051, “Divergent self-association properties of paralogous proteins TRIM2 and TRIM3 regulate their E3 ligase activity” (Nature Communications, 2022)

Tests used:
[1] = target: T1, 15N-labelled UBE2D3 (C85S) (UniProt P61077 1-147, mutation of the catalytic cysteine (C85) to serine); test: NMR titration; 1H-15N HSQC of 200 µM 15N-UBE2D3 (C85S) titrated with unlabelled RING (0 to 2 molar equivalents); 298 K; 25 mM Na-phosphate pH 7.0, 150 mM NaCl; Kd from fits of chemical shift changes; conditions: both partners purified
T1 construct: UBE2D3 with the catalytic cysteine (C85) mutated to serine; Uniformly 15N-enriched; source: bacteria grown in M9 minimal medium with 15N-ammonium chloride
T1 sequence (P61077 whole entry C85S): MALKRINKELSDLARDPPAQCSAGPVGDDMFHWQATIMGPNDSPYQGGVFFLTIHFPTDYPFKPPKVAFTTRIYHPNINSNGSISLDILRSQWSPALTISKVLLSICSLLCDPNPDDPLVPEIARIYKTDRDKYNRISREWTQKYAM

[2] = target: the molecule itself; test: SEC-MALLS; Superdex 75 or 200 10/300 GL Increase; 20 mM HEPES pH 7.5, 150 mM NaCl, 0.5 mM TCEP, 3 mM NaN3; 25 °C; 100 μl samples at multiple concentrations (5, 3, 2 and 1 mg/ml in Fig. 1b)
[3] = target: 15N-labelled UBE2D3 (C85S) (UniProt P61077 1-147, mutation of the catalytic cysteine (C85) to serine); test: NMR; residue K101
Target sequence in this assay (P61077 whole entry C85S): as above

Row | Binder | Kd [1] | stoichiometry N [2] | other results
1 | human TRIM2 RING (2-95) (domain or fragment, UniProt Q9C040 2-95, looked up, human TRIM2, RING construct, residues 2-95; likely on this pET49b construct too; also called T2R; RING1; source: E. coli BL21 (DE3), purified (Ni-NTA, His6 cleaved by HRV 3C, SEC); not shown: His6, N-terminal, cleaved) ASEGTNIPSPVVRQIDKQFLICSICLERYKNPKVLPCLHTFCERCLQNYIPAHSLTLSCPVCRQTSILPEKGVAALQNNFFITNLMDVLQRTPG | ~590 µM | 2 | Kd [3]: 643 µM
2 | chimera of the TRIM2 N- and C-terminal α-helices (2-16/84-95) and the TRIM3 core RING (16-82) (other, human, UniProt Q9C040 2-16, looked up, human TRIM2, N-terminal α-helix, residues 2-16; human TRIM3, core RING domain, residues 16-82; human TRIM2, C-terminal α-helix, residues 84-95; also called T2αs-T3Rcore; T2Rαs-T3Rcore; source: E. coli BL21 (DE3), purified (Ni-NTA, His6 cleaved by HRV 3C, SEC); not shown: His6, N-terminal, cleaved) ASEGTNIPSPVVRQIDKQFLVCSICLDRYQCPKVLPCLHTFCERCLQNYIPAQSLTLSCPVCRQTSILPEQGVSALQNNFFITNLMDVLQRTPG | – | – | binding result [2]: binds
3 | human TRIM2 RING-B-box2 (2-156) (domain or fragment, UniProt Q9C040 2-156, looked up, human TRIM2, RB2 construct, residues 2-156; also called TRIM2 RB2; source: E. coli BL21 (DE3), purified (Ni-NTA, His6 cleaved by HRV 3C, SEC); not shown: His6, N-terminal, cleaved) ASEGTNIPSPVVRQIDKQFLICSICLERYKNPKVLPCLHTFCERCLQNYIPAHSLTLSCPVCRQTSILPEKGVAALQNNFFITNLMDVLQRTPGSNAEESSILETVTAVAAGKPLSCPNHDGNVMEFYCQSCETAMCRECTEGEHAEHPTVPLKD | – | 2 | –
4 | human TRIM2 tripartite motif RBCC (2-316) (domain or fragment, UniProt Q9C040 2-316, looked up, human TRIM2, RBCC construct, residues 2-316; also called TRIM2 RBCC; source: E. coli BL21 (DE3), purified (Ni-NTA, His6 cleaved by HRV 3C, SEC); not shown: His6, N-terminal, cleaved) ASEGTNIPSPVVRQIDKQFLICSICLERYKNPKVLPCLHTFCERCLQNYIPAHSLTLSCPVCRQTSILPEKGVAALQNNFFITNLMDVLQRTPGSNAEESSILETVTAVAAGKPLSCPNHDGNVMEFYCQSCETAMCRECTEGEHAEHPTVPLKDVVEQHKASLQVQLDAVNKRLPEIDSALQFISEIIHQLTNQKASIVDDIHSTFDELQKTLNVRKSVLLMELEVNYGLKHKVLQSQLDTLLQGQESIKSCSNFTAQALNHGTETEVLLVKKQMSEKLNELADQDFPLHPRENDQLDFIVETEGLKKSIHNLG | – | 4 | –
5 | human TRIM3 tripartite motif RBCC (2-313) (domain or fragment, UniProt O75382 2-313, looked up, human TRIM3, RBCC construct, residues 2-313; also called TRIM3 RBCC; source: E. coli BL21 (DE3), purified (Ni-NTA, His6 cleaved by HRV 3C, SEC); not shown: His6, N-terminal, cleaved) AKREDSPGPEVQPMDKQFLVCSICLDRYQCPKVLPCLHTFCERCLQNYIPAQSLTLSCPVCRQTSILPEQGVSALQNNFFISSLMEAMQQAPDGAHDPEDPHPLSVVAGRPLSCPNHEGKTMEFYCEACETAMCGECRAGEHREHGTVLLRDVVEQHKAALQRQLEAVRGRLPQLSAAIALVGGISQQLQERKAEALAQISAAFEDLEQALQQRKQALVSDLETICGAKQKVLQSQLDTLRQGQEHIGSSCSFAEQALRLGSAPEVLLVRKHMRERLAALAAQAFPERPHENAQLELVLEVDGLRRSVLNLG | – | 2 | –
6 | human TRIM3 RING (2-95) (domain or fragment, tripeptide Gly-Pro-Gly left at the N-terminus by 3C protease cleavage; human TRIM3, RING construct, residues 2-95; also called T3R; source: E. coli BL21 (DE3), purified (Ni-NTA, His6 cleaved by HRV 3C, SEC); not shown: His6, N-terminal, cleaved) GPGAKREDSPGPEVQPMDKQFLVCSICLDRYQCPKVLPCLHTFCERCLQNYIPAQSLTLSCPVCRQTSILPEQGVSALQNNFFISSLMEAMQQAPDG | ~300 µM | – | –
